Article PMC9365860 (Cell Reports, 2022)
Like-named read-outs stand apart in the source and are kept apart here.

Legend:
[1] = molecular target: T1, Recombinant S1 Wuhan (residues 1–674) (SARS-CoV-2, UniProt P0DTC2); assay: ELISA; conditions: both partners purified
T1 construct: source: bought: Native Antigen Company

[2] = molecular target: T2, Full-length OC43 Spike on HEK 293T cells (human coronavirus OC43, isolate not …, UniProt P36334); assay: flow cytometry on cells; conditions: one partner purified
T2 construct: source: HEK293T, transfected (pcDNA3.1+), on the cell surface

[3] = molecular target: T3, Full-length SARS-CoV-2 Spike on HEK 293T cells (SARS-CoV-2, UniProt P0DTC2); assay: flow cytometry on cells; conditions: one partner purified
T3 construct: source: HEK293T, transfected (pcDNA3.1+), on the cell surface

[4] = molecular target: T4, Full-length SARS-CoV-1 Spike on HEK 293T cells (SARS-CoV-1 (SARS-CoV), isolate not …, UniProt P59594); assay: flow cytometry on cells; conditions: one partner purified
T4 construct: source: HEK293T, transfected (pcDNA3.1+), on the cell surface

[5] = molecular target: T5, Full-length NL63 Spike on HEK 293T cells (human coronavirus NL63, isolate not …, UniProt Q6Q1S2); assay: flow cytometry on cells; conditions: one partner purified
T5 construct: source: HEK293T, transfected (pcDNA3.1+), on the cell surface

[6] = molecular target: T6, Full-length 229E Spike on HEK 293T cells (human coronavirus 229E, isolate not …, UniProt P15423); assay: flow cytometry on cells; conditions: one partner purified
T6 construct: source: HEK293T, transfected (pcDNA3.1+), on the cell surface

[7] = molecular target: T7, Full-length MERS Spike on HEK 293T cells (MERS-CoV, isolate  (entry: …, UniProt K9N5Q8)); assay: flow cytometry on cells; conditions: one partner purified
T7 construct: source: HEK293T, transfected (pcDNA3.1+), on the cell surface

[8] = molecular target: T3, Full-length SARS-CoV-2 Spike on HEK …
[9] = molecular target: T4, Full-length SARS-CoV-1 Spike on HEK …
[10] = molecular target: T1, Recombinant S1 Wuhan (residues 1–674)
[11] = molecular target: Recombinant stabilized SARS-CoV-2 spike for ELISA (Wuhan) (SARS-CoV-2, Wuhan, UniProt P0DTC2, stabilised)

Measured: binding result

B1: P008_60 IgG (antibody, V domains shown)
VH: EVQLVESGGGVVQPGRSLRLTCAASGFIFSSYGMHWVRQAPGKGLEWVAVISYDGSYKYYADSVKGRFTISRDNSKNTLYLQMNSLRAEDTAVYYCTKADYYDFWSGYQKTYYYYMDVWGKGTTVTISS
VL: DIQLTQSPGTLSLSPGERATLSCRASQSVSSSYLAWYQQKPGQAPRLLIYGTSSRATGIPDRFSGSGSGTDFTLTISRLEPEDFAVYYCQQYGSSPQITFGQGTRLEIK
notes: also called mAb P008_60; P008_060; source: HEK-293F, co-transfected heavy and light plasmids, purified (protein G)
no binding (tested: 25 μg/mL): [2] | [5] | [6] | [7]
binds: [1] | [3] | [4]

B2: VA14_47 (antibody, V domains shown)
VH: EVQLVESGGGVVQPGRSLRLSCGGSGFTFSSHAMHWVRQAPGKGLEWVAVISYDGSYQYYADSVKGRFTISRDNSKNALYLQMNSLRVEDTAIYYCARDTPDLETYYFDCWGQGTLVTVSS
VL: EIVMTQSPGTLSLSPGERATLSCRASQSVSSSYLAWYQQKPGQAPRLLIYSACSRATGIPDRFSGSGSGTDFTLTISRLEPEDFAVYYCQQYGDSPRGSFGQGTKVDIK
binds: [8] | [9] | [10] | [11]
